The results in this text go back to article PMC7948397, “A novel soluble complement receptor 1 fragment with enhanced therapeutic potential” (The Journal of Biological Chemistry, 2020).

For test [1], the target named is T1, CR1 (soluble analyte of the reverse SPR experiment; construct not named) (human, UniProt P17927 42-1971).
T1 construct: human complement receptor 1, soluble
Briefly: SPR; reverse format: C3b or C4b immobilised by amine coupling (230 RU, only 20% active), CR1 as analyte; apparent affinities; data not shown. To be noted: both partners purified. (In general: Surface plasmon resonance follows binding to a sensor surface in real time, without labels.)

The target of test [2] is T2, plasma-derived human C3b (human, UniProt P01024 23-667; P01024 749-1663).
T2 construct: human complement C3, beta chain; human complement C3b, alpha' chain (C3 alpha chain without C3a); source: bought: Complement Technology, plasma-derived
T2 sequence (P01024 23-667, chain 1 of 2): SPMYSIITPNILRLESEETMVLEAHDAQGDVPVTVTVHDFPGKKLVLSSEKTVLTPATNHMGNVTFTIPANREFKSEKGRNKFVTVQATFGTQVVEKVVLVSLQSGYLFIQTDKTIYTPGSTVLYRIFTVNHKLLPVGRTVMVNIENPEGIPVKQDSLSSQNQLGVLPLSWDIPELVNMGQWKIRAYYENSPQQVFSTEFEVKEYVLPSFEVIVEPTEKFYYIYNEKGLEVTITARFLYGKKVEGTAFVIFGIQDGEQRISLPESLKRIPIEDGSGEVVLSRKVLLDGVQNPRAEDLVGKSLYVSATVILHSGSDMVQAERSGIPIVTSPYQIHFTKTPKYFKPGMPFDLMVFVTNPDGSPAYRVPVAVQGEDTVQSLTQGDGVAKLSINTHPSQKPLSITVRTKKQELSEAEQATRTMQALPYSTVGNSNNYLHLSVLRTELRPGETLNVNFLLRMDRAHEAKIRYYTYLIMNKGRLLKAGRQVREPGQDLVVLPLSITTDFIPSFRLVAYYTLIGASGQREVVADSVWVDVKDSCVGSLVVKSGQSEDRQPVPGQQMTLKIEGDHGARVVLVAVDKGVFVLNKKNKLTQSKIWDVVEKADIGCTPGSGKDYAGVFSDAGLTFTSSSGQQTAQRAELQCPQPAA
T2 sequence (P01024 749-1663, chain 2 of 2): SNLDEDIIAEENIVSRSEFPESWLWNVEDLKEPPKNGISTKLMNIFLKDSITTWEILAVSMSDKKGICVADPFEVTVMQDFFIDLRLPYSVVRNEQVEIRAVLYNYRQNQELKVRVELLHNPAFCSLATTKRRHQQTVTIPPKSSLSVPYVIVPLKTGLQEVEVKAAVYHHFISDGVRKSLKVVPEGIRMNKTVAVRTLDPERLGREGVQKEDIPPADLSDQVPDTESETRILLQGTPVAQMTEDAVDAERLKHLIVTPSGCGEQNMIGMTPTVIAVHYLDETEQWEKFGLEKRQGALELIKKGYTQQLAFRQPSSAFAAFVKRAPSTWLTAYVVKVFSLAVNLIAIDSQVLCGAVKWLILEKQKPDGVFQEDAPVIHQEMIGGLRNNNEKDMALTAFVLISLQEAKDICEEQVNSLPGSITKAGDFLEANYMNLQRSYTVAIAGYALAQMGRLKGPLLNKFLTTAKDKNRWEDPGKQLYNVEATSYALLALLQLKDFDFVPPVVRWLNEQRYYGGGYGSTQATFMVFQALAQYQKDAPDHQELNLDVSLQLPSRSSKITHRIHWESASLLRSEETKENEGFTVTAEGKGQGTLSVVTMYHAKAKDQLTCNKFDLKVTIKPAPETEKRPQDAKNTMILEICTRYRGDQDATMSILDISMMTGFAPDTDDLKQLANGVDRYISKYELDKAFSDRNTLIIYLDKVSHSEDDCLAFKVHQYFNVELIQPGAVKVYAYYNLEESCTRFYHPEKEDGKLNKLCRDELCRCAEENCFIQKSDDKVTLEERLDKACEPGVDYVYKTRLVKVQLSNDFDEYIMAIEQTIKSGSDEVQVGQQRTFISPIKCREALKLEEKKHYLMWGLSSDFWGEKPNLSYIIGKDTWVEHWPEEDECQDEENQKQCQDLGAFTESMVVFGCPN
Briefly: SPR; His-tagged CSL040 or HuCR1(1971) captured on a Ni-NTA chip to 75-100 RU, C3b or C4b injected as analyte; Biacore T200, 37 °C; 10 mM Hepes, 150 mM NaCl, 0.1% bovine serum albumin, pH 7.3; 1:1 model with a term for mass transport. To be noted: both partners purified.

T1 sequence (P17927 42-1971): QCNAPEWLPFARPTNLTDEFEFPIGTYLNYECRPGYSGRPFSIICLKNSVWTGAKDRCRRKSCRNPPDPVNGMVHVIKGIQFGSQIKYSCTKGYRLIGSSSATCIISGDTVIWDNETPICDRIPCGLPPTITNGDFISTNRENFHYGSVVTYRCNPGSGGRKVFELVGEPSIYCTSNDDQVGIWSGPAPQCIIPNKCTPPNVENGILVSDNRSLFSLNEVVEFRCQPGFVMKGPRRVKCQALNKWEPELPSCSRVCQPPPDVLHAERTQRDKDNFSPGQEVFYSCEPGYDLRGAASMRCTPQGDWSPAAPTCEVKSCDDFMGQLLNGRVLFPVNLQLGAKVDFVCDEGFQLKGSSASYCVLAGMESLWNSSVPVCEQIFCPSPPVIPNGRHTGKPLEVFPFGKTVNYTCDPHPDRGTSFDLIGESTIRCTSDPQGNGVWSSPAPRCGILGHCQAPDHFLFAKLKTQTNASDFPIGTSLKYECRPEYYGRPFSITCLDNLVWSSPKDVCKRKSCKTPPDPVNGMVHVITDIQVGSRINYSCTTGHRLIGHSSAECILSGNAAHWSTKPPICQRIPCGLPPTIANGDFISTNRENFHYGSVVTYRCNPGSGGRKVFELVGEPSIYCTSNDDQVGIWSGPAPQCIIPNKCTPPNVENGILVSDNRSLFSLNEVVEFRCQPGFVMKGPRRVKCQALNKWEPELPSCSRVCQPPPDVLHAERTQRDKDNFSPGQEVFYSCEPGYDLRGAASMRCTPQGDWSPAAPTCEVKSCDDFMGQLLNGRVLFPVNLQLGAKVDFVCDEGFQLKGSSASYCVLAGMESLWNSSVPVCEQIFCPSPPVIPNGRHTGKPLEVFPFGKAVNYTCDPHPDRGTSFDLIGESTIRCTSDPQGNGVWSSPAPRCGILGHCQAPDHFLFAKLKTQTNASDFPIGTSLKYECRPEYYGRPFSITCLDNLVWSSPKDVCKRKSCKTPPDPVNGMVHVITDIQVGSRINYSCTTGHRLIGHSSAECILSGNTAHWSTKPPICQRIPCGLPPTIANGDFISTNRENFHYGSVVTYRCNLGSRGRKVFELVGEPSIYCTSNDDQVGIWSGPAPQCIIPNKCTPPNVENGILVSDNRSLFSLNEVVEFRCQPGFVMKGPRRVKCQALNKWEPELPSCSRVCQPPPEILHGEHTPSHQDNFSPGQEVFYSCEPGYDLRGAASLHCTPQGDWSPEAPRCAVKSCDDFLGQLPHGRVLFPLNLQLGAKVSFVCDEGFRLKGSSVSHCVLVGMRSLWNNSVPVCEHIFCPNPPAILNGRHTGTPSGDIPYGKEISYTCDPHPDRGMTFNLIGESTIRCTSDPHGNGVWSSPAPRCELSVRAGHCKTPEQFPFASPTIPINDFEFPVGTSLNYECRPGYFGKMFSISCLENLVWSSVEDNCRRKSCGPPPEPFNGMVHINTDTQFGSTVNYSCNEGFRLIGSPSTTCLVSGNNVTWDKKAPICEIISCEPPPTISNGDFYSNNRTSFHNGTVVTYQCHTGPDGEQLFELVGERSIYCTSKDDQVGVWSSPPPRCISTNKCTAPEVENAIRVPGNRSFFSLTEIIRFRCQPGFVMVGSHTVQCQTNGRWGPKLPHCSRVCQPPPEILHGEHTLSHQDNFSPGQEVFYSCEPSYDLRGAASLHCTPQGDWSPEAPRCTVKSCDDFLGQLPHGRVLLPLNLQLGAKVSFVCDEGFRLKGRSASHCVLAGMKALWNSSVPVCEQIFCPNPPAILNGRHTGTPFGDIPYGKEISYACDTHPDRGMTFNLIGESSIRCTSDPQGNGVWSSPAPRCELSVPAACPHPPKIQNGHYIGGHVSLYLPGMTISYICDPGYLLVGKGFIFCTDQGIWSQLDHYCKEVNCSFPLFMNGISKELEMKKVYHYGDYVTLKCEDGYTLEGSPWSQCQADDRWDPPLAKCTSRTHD

B1: plasma-derived human C4b (ligand)
chain 1: KPRLLLFSPSVVHLGVPLSVGVQLQDVPRGQVVKGSVFLRNPSRNNVPCSPKVDFTLSSERDFALLSLQVPLKDAKSCGLHQLLRGPEVQLVAHSPWLKDSLSRTTNIQGINLLFSSRRGHLFLQTDQPIYNPGQRVRYRVFALDQKMRPSTDTITVMVENSHGLRVRKKEVYMPSSIFQDDFVIPDISEPGTWKISARFSDGLESNSSTQFEVKKYVLPNFEVKITPGKPYILTVPGHLDEMQLDIQARYIYGKPVQGVAYVRFGLLDEDGKKTFFRGLESQTKLVNGQSHISLSKAEFQDALEKLNMGITDLQGLRLYVAAAIIESPGGEMEEAELTSWYFVSSPFSLDLSKTKRHLVPGAPFLLQALVREMSGSPASGIPVKVSATVSSPGSVPEVQDIQQNTDGSGQVSIPIIIPQTISELQLSVSAGSPHPAIARLTVAAPPSGGPGFLSIERPDSRPPRVGDTLNLNLRAVGSGATFSHYYYMILSRGQIVFMNREPKRTLTSVSVFVDHHLAPSFYFVAFYYHGDHPVANSLRVDVQAGACEGKLELSVDGAKQYRNGESVKLHLETDSLALVALGALDTALYAAGSKSHKPLNMGKVFEAMNSYDLGCGPGGGDSALQVFQAAGLAFSDGDQWTLSRKRLSCPKEKTT
chain 2: ALEILQEEDLIDEDDIPVRSFFPENWLWRVETVDRFQILTLWLPDSLTTWEIHGLSLSKTKGLCVATPVQLRVFREFHLHLRLPMSVRRFEQLELRPVLYNYLDKNLTVSVHVSPVEGLCLAGGGGLAQQVLVPAGSARPVAFSVVPTAAAAVSLKVVARGSFEFPVGDAVSKVLQIEKEGAIHREELVYELNPLDHRGRTLEIPGNSDPNMIPDGDFNSYVRVTASDPLDTLGSEGALSPGGVASLLRLPRGCGEQTMIYLAPTLAASRYLDKTEQWSTLPPETKDHAVDLIQKGYMRIQQFRKADGSYAAWLSRDSSTWLTAFVLKVLSLAQEQVGGSPEKLQETSNWLLSQQQADGSFQDPCPVLDRSMQGGLVGNDETVALTAFVTIALHHGLAVFQDEGAEPLKQRVEASISKANSFLGEKASAGLLGAHAAAITAYALTLTKAPVDLLGVAHNNLMAMAQETGDNLYWGSVTGSQSNAVSPTPAPRNPSDPMPQAPALWIETTAYALLHLLLHEGKAEMADQASAWLTRQGSFQGGFRSTQDTVIALDALSAYWIASHTTEERGLNVTLSSTGRNGFKSHALQLNNRQIRGLEEELQFSLGSKINVKVGGNSKGTLKVLRTYNVLDMKNTTCQDLQIEVTVKGHVEYTMEANEDYEDYEYDELPAKDDPDAPLQPVTPLQLFEG
chain 3: EAPKVVEEQESRVHYTVCIWRNGKVGLSGMAIADVTLLSGFHALRADLEKLTSLSDRYVSHFETEGPHVLLYFDSVPTSRECVGFEAVQEVPVGLVQPASATLYDYYNPERRCSVFYGAPSKSRLLATLCSAEVCQCAEGKCPRQRRALERGLQDEDGYRMKFACYYPRVEYGFQVKVLREDSRAAFRLFETKITQVLHFTKDVKAAANQMRNFLVRASCRLRLEPGKEYLIMGLDGATYDLEGHPQYLLDSNSWIEEMPSERLCRSTRQRAACAQLNDFLQEYGTQGCQV
notes: human complement C4, beta chain; human complement C4b, alpha' chain (C4 alpha chain without C4a); human complement C4, gamma chain; Plasma-derived C4b is likely a mixture of C4A and C4B forms; source: bought: Complement Technology, plasma-derived; copies: + +
As to B1, the Kd in test [1] is about 4900 nM.

B2: HuCR1(1392)/CSL040, soluble human complement receptor 1 truncated at amino acid 1392 (LHR-A, LHR-B and LHR-C) (receptor)
chain: not shown
notes: signal peptide in the construct; human complement receptor 1 (HuCR1, CD35), endogenous signal peptide, ends at amino acid 1392 (LHR-A, LHR-B, LHR-C; lacks LHR-D); amino acid numbering based on Met + 1; cDNA GenBank NP_000564, codon optimised; N-glycosylated, highly sialylated; A version without the His-tag was also made, but the SPR used the His-tagged protein; also called LHR-ABC; not shown: …
On to B2, for which, in test [2], the Kd amounted to 265 nM, the koff is 0.00654 s⁻¹ and the kon is 24800 M⁻¹ s⁻¹.

In general, koff refers to a measure of how fast the partners let go of each other. A higher koff goes with fast dissociation. The term kon denotes the rate constant with which the complex forms. A higher kon goes with faster complex formation.
